Data taken from patent US7470668B2, “Method of use of specific natriuretic peptide receptor c ligands, transgenic non-human mammals expressing specific natriuretic peptide receptor c antagonists and cells thereof” (Enobia Pharma Inc., priority 2005, dated 2008).

Legend:
Type in all cases: cell-based
human GC-B = molecular target: T1, human GC-B (Homo sapiens, UniProt P20594); test: Intracellular cGMP in GC-B transfected HEK293 cells; conditions: 10 nM peptide, 15 min
T1 construct: expressed in transfected cells; host or cells: HEK293, transient, pCDNA1.1 (CMV promoter)
T1 sequence (P20594 23-1047): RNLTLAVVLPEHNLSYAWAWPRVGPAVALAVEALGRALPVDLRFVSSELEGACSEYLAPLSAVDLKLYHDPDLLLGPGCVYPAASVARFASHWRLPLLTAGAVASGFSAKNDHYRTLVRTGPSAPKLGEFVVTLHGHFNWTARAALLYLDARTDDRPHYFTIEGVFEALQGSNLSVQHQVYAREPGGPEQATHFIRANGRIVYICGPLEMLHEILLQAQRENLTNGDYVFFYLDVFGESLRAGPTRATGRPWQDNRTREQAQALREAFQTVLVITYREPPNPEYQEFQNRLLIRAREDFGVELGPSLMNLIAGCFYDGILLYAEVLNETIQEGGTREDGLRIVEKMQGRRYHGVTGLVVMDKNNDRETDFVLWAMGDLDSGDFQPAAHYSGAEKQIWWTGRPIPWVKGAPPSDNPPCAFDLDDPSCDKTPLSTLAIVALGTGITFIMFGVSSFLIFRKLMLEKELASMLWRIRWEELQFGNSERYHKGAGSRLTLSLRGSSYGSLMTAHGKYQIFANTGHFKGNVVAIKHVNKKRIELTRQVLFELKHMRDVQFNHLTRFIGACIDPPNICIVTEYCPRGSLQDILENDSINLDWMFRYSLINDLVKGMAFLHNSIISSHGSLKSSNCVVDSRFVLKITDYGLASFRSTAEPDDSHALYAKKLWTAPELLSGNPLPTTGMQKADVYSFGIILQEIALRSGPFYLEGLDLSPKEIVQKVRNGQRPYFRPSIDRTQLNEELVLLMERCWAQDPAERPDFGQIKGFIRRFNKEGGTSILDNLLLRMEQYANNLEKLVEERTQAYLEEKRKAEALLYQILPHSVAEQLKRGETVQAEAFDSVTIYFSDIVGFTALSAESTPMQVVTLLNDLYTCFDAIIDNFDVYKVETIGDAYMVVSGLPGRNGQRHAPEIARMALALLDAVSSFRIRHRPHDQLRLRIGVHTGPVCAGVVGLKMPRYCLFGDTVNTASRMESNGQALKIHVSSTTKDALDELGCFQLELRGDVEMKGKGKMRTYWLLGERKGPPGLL

NPR-C = molecular target: T2, NPR-C (Homo sapiens, UniProt P17342); test: ANP-stimulated cGMP in NPR-C overexpressing HEK293 cells; conditions: NPR-C-expressing cells, 0.1 nM ANP plus 10 nM peptide
T2 construct: expressed in transfected cells; host or cells: HEK293, transient, pCDNA1.1 (CMV promoter)
T2 sequence (P17342 27-541): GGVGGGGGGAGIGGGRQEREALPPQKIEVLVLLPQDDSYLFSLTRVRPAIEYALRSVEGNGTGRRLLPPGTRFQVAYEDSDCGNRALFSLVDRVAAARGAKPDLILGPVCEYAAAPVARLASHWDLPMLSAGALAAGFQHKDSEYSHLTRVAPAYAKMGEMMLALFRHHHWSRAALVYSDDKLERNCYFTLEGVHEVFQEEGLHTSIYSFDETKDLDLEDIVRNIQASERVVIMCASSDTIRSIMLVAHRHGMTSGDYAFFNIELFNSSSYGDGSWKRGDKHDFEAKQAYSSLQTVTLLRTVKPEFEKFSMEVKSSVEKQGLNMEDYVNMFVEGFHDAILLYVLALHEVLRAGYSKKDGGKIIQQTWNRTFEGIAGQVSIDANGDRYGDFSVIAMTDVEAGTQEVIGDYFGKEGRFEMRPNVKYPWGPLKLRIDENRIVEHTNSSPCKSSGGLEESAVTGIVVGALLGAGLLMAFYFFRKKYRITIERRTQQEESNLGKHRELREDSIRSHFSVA
Excerpt: The expression plasmid for rat GC-A containing the entire coding sequence cloned between the NheI-KpnI sites of CMV-driven pBK plasmid (Stratagene, La Jolla, Calif.) was kindly provided by Dr. A. De Léan (Département de Pharmacologie, Université de Montréal). The human NPR-C and GC-B coding sequences were amplified by RT-PCR from human embryonic kidney polyA RNA (Clontech, Palo Alto, Calif.) with the following primer pairs: NPR-C-5′-[…]-3′(forward) (SEQ ID NO: 74) and 5′-[…]-3′ (SEQ ID NO: 75) (reverse); GC-B-5′-[…]-3′ (SEQ ID NO: 76) (forward) and 5′-[…]-3′ (SEQ ID NO: 77) (reverse). The resulting PCR products were then cloned downstream of the CMV-promoter into the pCDNA1.1 plasmid (Invitrogen, Burlington, ON, Canada). All constructs were validated by DNA sequencing.

rat GC-A = molecular target: T3, rat GC-A (Rattus norvegicus, UniProt P18910); test: Intracellular cGMP in GC-A transfected HEK293 cells; conditions: 10 nM peptide, 15 min
T3 construct: expressed in transfected cells; host or cells: HEK293, transient, CMV-driven pBK plasmid (gift of Dr. A. De Léan)
T3 sequence (P18910 29-1057): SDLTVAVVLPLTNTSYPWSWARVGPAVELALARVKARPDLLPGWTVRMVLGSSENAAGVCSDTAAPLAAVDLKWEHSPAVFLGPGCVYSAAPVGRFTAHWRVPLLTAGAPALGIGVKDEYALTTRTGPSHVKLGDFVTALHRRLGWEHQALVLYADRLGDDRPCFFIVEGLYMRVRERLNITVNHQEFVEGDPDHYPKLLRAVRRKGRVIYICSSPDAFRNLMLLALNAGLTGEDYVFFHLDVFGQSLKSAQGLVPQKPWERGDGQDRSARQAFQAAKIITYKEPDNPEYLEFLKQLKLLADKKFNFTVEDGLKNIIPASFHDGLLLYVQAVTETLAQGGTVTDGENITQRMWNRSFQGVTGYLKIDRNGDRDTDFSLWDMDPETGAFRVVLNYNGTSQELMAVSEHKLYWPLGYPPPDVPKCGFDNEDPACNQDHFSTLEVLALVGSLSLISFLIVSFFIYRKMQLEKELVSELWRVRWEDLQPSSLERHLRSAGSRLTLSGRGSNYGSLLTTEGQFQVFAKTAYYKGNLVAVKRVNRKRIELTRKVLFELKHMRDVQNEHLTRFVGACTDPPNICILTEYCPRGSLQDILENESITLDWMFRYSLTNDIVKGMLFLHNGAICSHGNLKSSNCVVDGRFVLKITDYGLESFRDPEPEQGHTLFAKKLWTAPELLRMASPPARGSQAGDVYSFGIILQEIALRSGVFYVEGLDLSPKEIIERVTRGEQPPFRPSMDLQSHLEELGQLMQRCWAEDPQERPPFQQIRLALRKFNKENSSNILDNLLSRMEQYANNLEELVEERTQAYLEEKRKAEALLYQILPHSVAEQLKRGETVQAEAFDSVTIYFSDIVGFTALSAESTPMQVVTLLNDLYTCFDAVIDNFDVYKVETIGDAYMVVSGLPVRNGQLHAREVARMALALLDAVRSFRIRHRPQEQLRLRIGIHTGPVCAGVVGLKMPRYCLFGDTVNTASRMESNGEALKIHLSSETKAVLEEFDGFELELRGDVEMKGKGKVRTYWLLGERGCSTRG

B1: rhOstn[27-133]: N-terminal 6 histidine-tagged recombinant human Ostn amino acids 27-133 produced in E.coli, SEQ ID NO: 57 (protein)
chain: SVDVTTTEAFDSGVIDVQSTPTVREEKSATDLTAKLLLLDELVSLENDVIETKKKRSFSGFGSPLDRLSAGSVDHKGKQRKVVDHPKRRFGIPMDRIGRNRLSNSRG
modifications: N-terminal His6 tag; recombinant mature osteocrin
- intracellular cGMP response via GC-B (human GC-B): failed to activate
- increase in cGMP levels (restored ANP signalling) (NPR-C): 8 fold
- intracellular cGMP response via GC-A (rat GC-A): failed to activate
